± gives the uncertainty stated by the source.
B1: Pre-mRNA-processing factor 40 homolog B, residues 274 to 332; numbered along this chain, Q6NWY9 (parent)
chain: SNREKAKQAFKELLRDKAVPSNASWEQAMKMVVTDPRYSALPKLSEKKQAFNAYKAQRE

Variants of: B1
Assay: abundance fitness (aPCA) (normalised: wild type 0, dead -1); higher = more abundant; growth selection in yeast, the domain comes from the species named
Conditions: Homo sapiens
With D35Y the abundance fitness was -1.38 ± 0.31.
For D35E, the abundance fitness was -0.372 ± 0.084.
For D35T, the abundance fitness was -0.714 ± 0.13.
In the case of D35S, the abundance fitness is reported as -0.716 ± 0.097.
In the case of D35Q, the abundance fitness is reported as -0.823 ± 0.16.
D35F gave an abundance fitness of -0.951 ± 0.26.
D35M showed an abundance fitness of -0.699 ± 0.12.
With D35V the abundance fitness was -0.85 ± 0.079.
Work on D35P yielded an abundance fitness of -0.905 ± 0.14.
For D35L, the abundance fitness was -0.853 ± 0.1.
D35W gave an abundance fitness of -1.21 ± 0.12.
Work on D35K yielded an abundance fitness of -1.11 ± 0.18.
D35N showed an abundance fitness of -0.415 ± 0.15.
D35A gave an abundance fitness of -0.701 ± 0.083.
With D35R the abundance fitness was -1.12 ± 0.093.
D35I showed an abundance fitness of -0.94 ± 0.2.
D35G gave an abundance fitness of -0.742 ± 0.063.
M31P gave an abundance fitness of -0.247 ± 0.15.
In the case of M31R, the abundance fitness is reported as -0.266 ± 0.06.
With M31K the abundance fitness was -0.293 ± 0.094.
Variant M31Y has an abundance fitness of -0.32 ± 0.14.
M31H showed an abundance fitness of -0.208 ± 0.17.
Work on M31G yielded an abundance fitness of -0.231 ± 0.059.
M31Q showed an abundance fitness of -0.246 ± 0.15.
M31N showed an abundance fitness of -0.364 ± 0.17.
For M31L, the abundance fitness was -0.189 ± 0.099.
M31W showed an abundance fitness of -0.865 ± 0.13.
Variant M31C has an abundance fitness of -0.422 ± 0.12.
M31E gave an abundance fitness of -0.109 ± 0.088.
With M31D the abundance fitness was -0.272 ± 0.11.
M31V showed an abundance fitness of -0.326 ± 0.084.
M31T gave an abundance fitness of -0.336 ± 0.11.
Variant M31S has an abundance fitness of -0.115 ± 0.077.
Work on M31F yielded an abundance fitness of -0.634 ± 0.19.
In the case of M29Q, the abundance fitness is reported as 0.047 ± 0.11.
M29V gave an abundance fitness of -0.114 ± 0.063.
M29E gave an abundance fitness of -0.102 ± 0.1.
For M29G, the abundance fitness was -0.237 ± 0.058.
M29R gave an abundance fitness of -0.078 ± 0.059.
In the case of M29C, the abundance fitness is reported as -0.203 ± 0.1.
Work on M29L yielded an abundance fitness of -0.216 ± 0.093.
Work on M29S yielded an abundance fitness of -0.136 ± 0.086.
For M29K, the abundance fitness was 0.166 ± 0.094.
M29Y gave an abundance fitness of -0.014 ± 0.14.
For M29F, the abundance fitness was -0.295 ± 0.17.
For M29T, the abundance fitness was -0.282 ± 0.088.
Work on M29P yielded an abundance fitness of -0.103 ± 0.1.
M29D gave an abundance fitness of -0.097 ± 0.1.
With M29A the abundance fitness was -0.125 ± 0.075.
With A23I the abundance fitness was -0.122 ± 0.13.
For A23T, the abundance fitness was -0.467 ± 0.1.
Work on A23G yielded an abundance fitness of -0.464 ± 0.054.
With A23R the abundance fitness was -0.506 ± 0.068.
A23F showed an abundance fitness of -0.348 ± 0.14.
A23N showed an abundance fitness of -0.335 ± 0.12.
In the case of A23H, the abundance fitness is reported as -0.591 ± 0.18.
In the case of A23Q, the abundance fitness is reported as -0.528 ± 0.093.
Variant A23Y has an abundance fitness of -0.254 ± 0.12.
With A23S the abundance fitness was -0.313 ± 0.072.
Work on A23C yielded an abundance fitness of -0.206 ± 0.083.
Work on A23D yielded an abundance fitness of -0.522 ± 0.091.
With A23P the abundance fitness was -0.533 ± 0.13.
In the case of A23M, the abundance fitness is reported as -0.142 ± 0.096.
In the case of A23V, the abundance fitness is reported as -0.222 ± 0.065.
With A23K the abundance fitness was -0.459 ± 0.1.
Work on S21Q yielded an abundance fitness of 0.014 ± 0.13.
In the case of S21R, the abundance fitness is reported as -0.083 ± 0.073.
For S21K, the abundance fitness was 0.134 ± 0.12.
With S21C the abundance fitness was -0.001 ± 0.1.
S21E showed an abundance fitness of -0.054 ± 0.12.
In the case of S21G, the abundance fitness is reported as -0.103 ± 0.074.
With S21L the abundance fitness was 0.109 ± 0.087.
Work on S21F yielded an abundance fitness of 0.029 ± 0.11.
Work on S21V yielded an abundance fitness of 0.089 ± 0.073.
S21T gave an abundance fitness of 0.06 ± 0.093.
S21M gave an abundance fitness of 0.074 ± 0.11.
With S21N the abundance fitness was -0.492 ± 0.16.
Variant S21H has an abundance fitness of -0.037 ± 0.47.
With S21D the abundance fitness was -0.077 ± 0.1.
S21W gave an abundance fitness of -0.055 ± 0.13.
S21Y gave an abundance fitness of 0.005 ± 0.12.
S21P showed an abundance fitness of -0.146 ± 0.1.
For R37G, the abundance fitness was -0.577 ± 0.051.
R37I gave an abundance fitness of -0.228 ± 0.14.

Reference: the Human Domainome abundance scans (Beltran et al. 2025)
